Assay results: patent US20160272977, “DNMT Inhibitors” (New England Biolabs, Inc., published 2016)

T1: GST-DNMT1 fragment 4 (Homo sapiens, UniProt P26358 SEQ:1081-1408)
T1 chain: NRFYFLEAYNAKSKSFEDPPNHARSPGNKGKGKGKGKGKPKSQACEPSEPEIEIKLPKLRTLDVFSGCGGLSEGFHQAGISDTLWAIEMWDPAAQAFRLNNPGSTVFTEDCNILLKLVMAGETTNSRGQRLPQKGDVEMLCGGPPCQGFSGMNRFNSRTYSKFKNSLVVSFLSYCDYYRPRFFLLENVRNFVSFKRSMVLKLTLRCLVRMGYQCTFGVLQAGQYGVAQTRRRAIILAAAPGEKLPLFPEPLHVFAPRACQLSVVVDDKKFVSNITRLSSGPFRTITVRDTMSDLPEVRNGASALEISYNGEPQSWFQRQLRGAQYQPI


How the values were obtained:
[1] = molecular target: T2, DNMT1 full-length (Homo sapiens, UniProt P26358 SEQ:1-1616); assay: inhibition; mixed inhibition vs AdoMet; conditions: tags: baculovirus Sf9
Experimental: For determination of the inhibition pattern and Kᵢ of asCEBPα-2 versus hemimethylated DNA substrate, 20 nM of the DNMT1 enzyme was incubated with 1.328, 0.884, 0.59, 0.394, 0.262, 0.1748 and 0.1168 μM (concentration calculated in terms of hemimethylated CpG) of the 36-bp length hemimethylated DNA substrate with the sequence of (CMeGG•CCG)₁₂ and 5.328 μM of [³H]AdoMet (PerkinElmer, Waltham, Mass.) in the presence of 0, 0.25, 0.5, 1, 2 and 4 μM folded asCEBPα-2 inhibitor RNA in 1×DNMT1 reaction buffer (New England Biolabs, Ipswich, Mass.). The reaction was performed at 37° C. for 30 minutes and DNMT1 enzyme was quenched by flash freezing the reaction mix in a dry ice-methanol bath. The reaction was split into two halves and spotted onto DE81 Whatman® 3658-325 ion exchange filter papers (GE Healthcare Life Sciences, Piscataway, N.J.). The Ki and velocity plots were calculated according to Bacolla, et al., J. Biol. Chem., 274:33011-33019 (1999).
For determination of the inhibition patterns of various test RNAs and Kᵢ for asCEBPα-2 versus AdoMet, reactions were carried out at similar conditions as those described above. […] The nanomolar [³H]CH₃ transferred to hemimethylated DNA substrate was calculated in the same way as in the competitive experiment versus hemimethylated DNA substrate, except that the nanomolar concentration obtained was multiplied by an coefficient of 19.5. […]

[2] = molecular target: T2, DNMT1 full-length; assay: inhibition; competitive vs hemimethylated DNA; conditions: tags: baculovirus Sf9
[3] = molecular target: T1, GST-DNMT1 fragment 4; assay: pulldown; lower than HPE variant; conditions: tags: N-terminal GST (pGEX-5x-1); label: 5'-33P in pull-down; stem-loop
Excerpt: (§1) The resulting protein bands are shown in FIG. 1B; asterisks mark the positions of the GST-DNMT1 fusion proteins. GST-DNMT1 fragments were adjusted to the same protein concentration with 50% slurry sepharose beads. RNase inhibitor (New England Biolabs, Ipswich, Mass.) was applied to beads slurry at 40 U/mL immediate before use.
(§2) The GST-DNMT1 fragments exposed to a series of small RNA molecules are depicted in FIG. 1D. The RNA oligos were labelled at the 5′ end with [γ-33P]ATP (PerkinElmer, Waltham, Mass.) using T4 polynucleotide kinase (New England Biolabs, Ipswich, Mass.), and purified with Illustra® ProbeQuant® G-50 Micro Columns (GE Healthcare Life Sciences, Piscataway, N.J.) per the manufacturer's instructions. The binding assay was performed in 50 μL reaction volume containing 20 μL of GST-DNMT1 fragment beads, 5 μL of 5 μM labelled RNA oligo, 5 μL of 10×DNMT1 reaction buffer (New England Biolabs, Ipswich, Mass.) and 20 μL of RNase-free water. After incubation at 37° C. for 10 minutes, beads were washed twice and suspended in 200 μL of PBS. The radioactivity associated with the beads was analyzed by liquid scintillation counting using a Tri-Carb® 2900TR (PerkinElmer, Waltham, Mass.). The amount of RNA oligo bound to beads were calculated by normalizing the scintillation counts of beads to that of 1 pmol labelled RNA oligo.

[4] = molecular target: T1, GST-DNMT1 fragment 4; assay: pulldown; greater than asCEBPα-1; conditions: tags: N-terminal GST (pGEX-5x-1); label: 5'-33P in pull-down
Excerpt: as §1, §2

[5] = molecular target: T2, DNMT1 full-length; assay: inhibition; competitive vs hemimethylated DNA; conditions: tags: baculovirus Sf9; remark: listed apart in the source
Experimental: Single point biochemistry assays were performed by incubating 10 nM of the DNMT1 enzyme with 1 μM of hemimethylated DNA and 5.328 μM of [³H]AdoMet in the presence of 5.28 μM of folded synthetic RNA oligos. The reaction was done for 15 minutes and radioactivity was counted. [³H]AdoMet incorporation, initial velocity curve and Kᵢ were calculated as described in Example 2.
FIGS. 7C and 7D are representative plots of the inhibitory activity of 5p-5 and 3p-5 at increasing concentrations.

[6] = molecular target: T2, DNMT1 full-length; assay: inhibition; competitive vs hemimethylated DNA, 37 C; conditions: tags: baculovirus Sf9
[7] = molecular target: T1, GST-DNMT1 fragment 4; assay: pulldown; GST pull-down, 33P RNA, 37 C; lower than HPE variant; conditions: tags: N-terminal GST (pGEX-5x-1); label: 5'-33P in pull-down; stem-loop
Excerpt: as §1, §2

[8] = molecular target: T1, GST-DNMT1 fragment 4; assay: pulldown; most efficient binder of the four; conditions: tags: N-terminal GST (pGEX-5x-1); label: 5'-33P in pull-down; predicted to lack stem-loop
Excerpt: as §1, §2

[9] = label: 5'-33P in pull-down, stem-loop

T2 sequence (P26358 whole entry): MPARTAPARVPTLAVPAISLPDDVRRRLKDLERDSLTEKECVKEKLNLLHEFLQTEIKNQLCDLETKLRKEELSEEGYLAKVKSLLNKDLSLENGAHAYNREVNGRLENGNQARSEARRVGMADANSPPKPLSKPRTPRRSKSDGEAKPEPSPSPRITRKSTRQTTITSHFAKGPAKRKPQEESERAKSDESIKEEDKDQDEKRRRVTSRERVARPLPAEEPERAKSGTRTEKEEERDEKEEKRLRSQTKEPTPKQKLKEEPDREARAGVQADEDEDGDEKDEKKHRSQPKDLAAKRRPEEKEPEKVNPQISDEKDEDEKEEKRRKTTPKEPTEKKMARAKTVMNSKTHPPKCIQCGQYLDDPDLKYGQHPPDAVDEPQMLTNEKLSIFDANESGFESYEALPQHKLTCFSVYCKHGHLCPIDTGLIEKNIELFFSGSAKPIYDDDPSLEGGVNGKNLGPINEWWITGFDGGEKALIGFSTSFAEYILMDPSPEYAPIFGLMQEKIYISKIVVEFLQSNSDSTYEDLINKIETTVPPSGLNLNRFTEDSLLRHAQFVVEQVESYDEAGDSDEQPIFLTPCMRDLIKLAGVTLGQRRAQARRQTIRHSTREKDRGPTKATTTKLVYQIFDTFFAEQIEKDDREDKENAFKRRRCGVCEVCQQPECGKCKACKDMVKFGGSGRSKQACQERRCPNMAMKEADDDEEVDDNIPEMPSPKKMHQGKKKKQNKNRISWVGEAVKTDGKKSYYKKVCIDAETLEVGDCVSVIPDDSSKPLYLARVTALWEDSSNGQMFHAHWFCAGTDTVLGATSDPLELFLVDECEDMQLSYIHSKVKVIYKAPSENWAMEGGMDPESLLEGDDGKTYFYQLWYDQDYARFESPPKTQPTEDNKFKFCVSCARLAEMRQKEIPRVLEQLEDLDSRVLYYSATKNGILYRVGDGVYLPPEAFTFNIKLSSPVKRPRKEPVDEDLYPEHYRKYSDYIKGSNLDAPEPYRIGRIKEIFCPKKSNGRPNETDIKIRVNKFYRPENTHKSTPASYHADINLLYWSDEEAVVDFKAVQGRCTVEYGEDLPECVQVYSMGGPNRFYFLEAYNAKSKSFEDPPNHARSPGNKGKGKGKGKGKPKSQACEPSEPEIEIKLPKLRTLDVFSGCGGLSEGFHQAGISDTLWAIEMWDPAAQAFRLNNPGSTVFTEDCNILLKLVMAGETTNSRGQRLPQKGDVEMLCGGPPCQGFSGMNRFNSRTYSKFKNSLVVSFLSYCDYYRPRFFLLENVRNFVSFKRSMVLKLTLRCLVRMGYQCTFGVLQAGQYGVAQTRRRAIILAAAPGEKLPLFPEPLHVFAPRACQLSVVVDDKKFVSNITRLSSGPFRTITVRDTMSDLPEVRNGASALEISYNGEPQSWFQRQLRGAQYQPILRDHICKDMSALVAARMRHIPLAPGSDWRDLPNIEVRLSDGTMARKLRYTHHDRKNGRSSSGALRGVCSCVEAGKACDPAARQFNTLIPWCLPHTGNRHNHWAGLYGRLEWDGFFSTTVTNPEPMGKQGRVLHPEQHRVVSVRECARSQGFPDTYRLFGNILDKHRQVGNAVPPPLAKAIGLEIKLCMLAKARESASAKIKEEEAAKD

| Binder | Ki [2] [nM] | other results |
| --- | --- | --- |
| GCCAGUGGCGAGGGGCGGCGCGG (ssRNA) [asCEBPα-2] |  | Ki [1, 9]: 91.7 nM; Ki [2, 9]: 434 nM; binding result [3]: binds |
| AUAAAGCUAGAUAACCGAAAGU (ssRNA) [miR-9-3p] | 1600 |  |
| UCGGAUCCGUCUGAGCUUGGCU (ssRNA) [miR-127-3p] | 269 |  |
| UGUGCAAAUCCAUGCAAAACUGA (ssRNA) [miR-19b-3p] | 3320 |  |
| UAGCAGCACGUAAAUAUUGGCG (ssRNA) [miR-16-5p] | 463 |  |
| UAGCUUAUCAGACUGAUGUUGA (ssRNA) [miR-21-5p] | 1290 |  |
| UAUUGCACUUGUCCCGGCCUGU (ssRNA) [miR-92a-3p] | 1650 |  |
| CAAAGUGCUUACAGUGCAGGUAG (ssRNA) [miR-17-5p] | 317 | Ki [1]: 385 nM |
| CCGGGAAGCAGGCGGCGUCAGGC (ssRNA) [asCEBPα-1HPE] |  | Ki ([2]; label: 5'-33P in pull-down): 918 nM; binding result [4]: binds |
| UGAGAACUGAAUUCCAUGGGUU (ssRNA) [miR-146a-5p] | 1030 |  |
| UCGUGAUAGGGGU (ssRNA) [5p-5] |  | Ki [5]: 124 nM |
| UAAAGUGCUUAUAGUGCAGGUAG (ssRNA) [miR-20a-5p] | 560 |  |
| GUCCAGUUUUCCCAGGAAUCCCU (ssRNA) [miR-145-5p] | 2460 |  |
| ACUCAAAAUGGGGGCGCUUUCC (ssRNA) [miR-373-5p] | 298 |  |
| UUAAUGCUAAUCGUGAUAGGGGU (ssRNA) [miR-155-5p] |  | Ki [6]: 27.9 nM |
| CCGGGACGCAGGCGGCGUCAGGC (ssRNA) [asCEBPα-1] |  | Ki [2, 9]: 2000 nM; binding result [7]: binds |
| AGGUUGGGAUCGGUUGCAAUGCU (ssRNA) [miR-92a-1-5p] | 476 |  |
| GACAGUGGAGAGGGGCGGAGCGG (ssRNA) [asCEBPα-2HPE] |  | Ki ([2]; label: 5'-33P in pull-down, predicted to lack stem-loop): 135 nM; binding result [8]: binds |
| UCUUUGGUUAUCUAGCUGUAUGA (ssRNA) [miR-9-5p] | 493 |  |
